From the supplement of paper PMC9112550, “Optimization of the antimicrobial peptide Bac7 by deep mutational scanning” (BMC Biology, 2022)

Test system: Escherichia coli TOP10
Test: shrunken log2 fold change of peptide-encoding DNA abundance (4.5 h post-induction vs induction); higher = less antimicrobial activity (less host growth inhibition)
Details: time post-induction: 4.5 h; library: site-saturation at positions 5, 18, 19, 20
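Further: peptides expressed intracellularly from a pBAD plasmid library in pooled LB shake-flask culture, induced with 0.3% L-arabinose, DNA abundance read by NGS, three biological replicates, DESeq2 with apeglm shrinkage.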

| Sequence | shrunken log2 fold change |
| --- | --- |
| RRIRCRPPRLPRPRPRPHDNPRP | -0.356 |
| RRIRCRPPRLPRPRPRPGRRPRP | 1.11 |
| RRIRYRPPRLPRPRPRPWHIPRP | -0.103 |
| RRIRYRPPRLPRPRPRPDIPPRP | -0.119 |
| RRIRHRPPRLPRPRPRPATHPRP | -0.105 |
| RRIRLRPPRLPRPRPRPELAPRP | 0.0176 |
| RRIRQRPPRLPRPRPRPHHGPRP | -0.042 |
| RRIRQRPPRLPRPRPRPQQHPRP | -0.362 |
| RRIRIRPPRLPRPRPRPGIAPRP | -0.184 |
| RRIRDRPPRLPRPRPRPSQHPRP | -0.343 |
| RRIRQRPPRLPRPRPRPTVYPRP | 0.079 |
| RRIRCRPPRLPRPRPRPSYIPRP | -0.675 |
| RRIRGRPPRLPRPRPRPMKKPRP | 1.17 |
| RRIRHRPPRLPRPRPRPVNWPRP | 0.18 |
| RRIRIRPPRLPRPRPRPWTQPRP | 0.0826 |
| RRIRQRPPRLPRPRPRPTETPRP | 0.0687 |
| RRIRQRPPRLPRPRPRPESAPRP | 0.208 |
| RRIRIRPPRLPRPRPRPKYDPRP | -0.51 |
| RRIRRRPPRLPRPRPRPDLQPRP | 0.0255 |
| RRIRDRPPRLPRPRPRPDCLPRP | 0.779 |
| RRIRHRPPRLPRPRPRPPGIPRP | 0.142 |
| RRIRVRPPRLPRPRPRPWNCPRP | 0.0131 |

| Sequence | shrunken log2 fold change |
| --- | --- |
| RRIRPRPPRLPRPRPRPAFPPRP | 0.409 |
| RRIRCRPPRLPRPRPRPQWYPRP | -0.321 |
| RRIRLRPPRLPRPRPRPAAVPRP | 0.376 |
| RRIRNRPPRLPRPRPRPENWPRP | 0.0185 |
| RRIRKRPPRLPRPRPRPLKIPRP | 2.15 |
| RRIRNRPPRLPRPRPRPVWDPRP | 0.325 |
| RRIRERPPRLPRPRPRPIQTPRP | 0.0703 |
| RRIRTRPPRLPRPRPRPEVSPRP | -0.28 |
| RRIRYRPPRLPRPRPRPTHQPRP | -0.161 |
| RRIRERPPRLPRPRPRPVCKPRP | 0.0272 |
| RRIRFRPPRLPRPRPRPAMSPRP | -0.302 |
| RRIRVRPPRLPRPRPRPSCVPRP | -0.583 |
| RRIRFRPPRLPRPRPRPKGAPRP | -0.0295 |
| RRIRWRPPRLPRPRPRPVITPRP | 0.362 |
| RRIRQRPPRLPRPRPRPEHFPRP | 0.0746 |
| RRIRWRPPRLPRPRPRPMRTPRP | 0.273 |
| RRIRDRPPRLPRPRPRPWPGPRP | 0.104 |
| RRIRTRPPRLPRPRPRPLTKPRP | 0.0652 |
| RRIRRRPPRLPRPRPRPPMLPRP | 0.317 |
| RRIRCRPPRLPRPRPRPTNGPRP | -0.0378 |
| RRIRARPPRLPRPRPRPWTEPRP | -0.181 |
| RRIRGRPPRLPRPRPRPNIFPRP | 0.398 |

| Sequence | shrunken log2 fold change |
| --- | --- |
| RRIRLRPPRLPRPRPRPSMGPRP | 0.0483 |
| RRIRVRPPRLPRPRPRPKVEPRP | 0.317 |
| RRIRRRPPRLPRPRPRPVMPPRP | 0.338 |
| RRIRSRPPRLPRPRPRPQSRPRP | 0.0912 |
| RRIRQRPPRLPRPRPRPKMSPRP | -0.101 |
| RRIRDRPPRLPRPRPRPSMVPRP | -0.24 |
| RRIRPRPPRLPRPRPRPYQFPRP | -0.114 |
| RRIRMRPPRLPRPRPRPKGYPRP | -0.0135 |
| RRIRPRPPRLPRPRPRPNNYPRP | -0.0307 |
| RRIRDRPPRLPRPRPRPECCPRP | 0.828 |
| RRIRIRPPRLPRPRPRPRWAPRP | 0.0908 |
| RRIRPRPPRLPRPRPRPWAWPRP | 0.0719 |
| RRIRMRPPRLPRPRPRPLMLPRP | -0.0158 |
| RRIRARPPRLPRPRPRPDWGPRP | 0.272 |
| RRIRLRPPRLPRPRPRPWGDPRP | -0.176 |
| RRIRYRPPRLPRPRPRPLFWPRP | -0.214 |
| RRIRCRPPRLPRPRPRPSGRPRP | 0.235 |
| RRIRWRPPRLPRPRPRPRPIPRP | 0.434 |
| RRIRYRPPRLPRPRPRPQKVPRP | -0.209 |
| RRIRSRPPRLPRPRPRPCLGPRP | -0.127 |
| RRIRCRPPRLPRPRPRPLETPRP | -0.012 |
| RRIRMRPPRLPRPRPRPESWPRP | 1.52 |

| Sequence | shrunken log2 fold change |
| --- | --- |
| RRIRHRPPRLPRPRPRPAWDPRP | -0.0216 |
| RRIRERPPRLPRPRPRPFTIPRP | -0.162 |
| RRIRKRPPRLPRPRPRPENWPRP | 0.928 |
| RRIRPRPPRLPRPRPRPTQYPRP | 0.287 |
| RRIRWRPPRLPRPRPRPNQKPRP | -0.0347 |
| RRIRCRPPRLPRPRPRPVKFPRP | -0.192 |
| RRIRPRPPRLPRPRPRPCMQPRP | -0.358 |
| RRIRVRPPRLPRPRPRPVHEPRP | -0.104 |
| RRIRLRPPRLPRPRPRPQSDPRP | -0.205 |
| RRIRFRPPRLPRPRPRPIDTPRP | -0.127 |
| RRIRKRPPRLPRPRPRPMMVPRP | 0.0826 |
| RRIRVRPPRLPRPRPRPYCVPRP | -0.125 |
| RRIRPRPPRLPRPRPRPHNNPRP | -0.692 |
| RRIRNRPPRLPRPRPRPPNVPRP | -0.0463 |
| RRIRARPPRLPRPRPRPPEAPRP | 0.699 |
| RRIRLRPPRLPRPRPRPNWMPRP | -0.296 |
| RRIRSRPPRLPRPRPRPMSKPRP | -0.032 |
| RRIRHRPPRLPRPRPRPHWQPRP | -0.00133 |
| RRIRGRPPRLPRPRPRPTNDPRP | 0.564 |
| RRIRARPPRLPRPRPRPEDLPRP | 0.0217 |
| RRIRGRPPRLPRPRPRPRFTPRP | 0.582 |
| RRIRFRPPRLPRPRPRPVIWPRP | -0.0895 |

| Sequence | shrunken log2 fold change |
| --- | --- |
| RRIRSRPPRLPRPRPRPRVPPRP | 0.692 |
| RRIRLRPPRLPRPRPRPCMRPRP | 0.188 |
| RRIRIRPPRLPRPRPRPKNTPRP | -0.695 |
| RRIRRRPPRLPRPRPRPQQKPRP | 0.011 |
| RRIRVRPPRLPRPRPRPVKTPRP | -0.11 |
| RRIRKRPPRLPRPRPRPDFLPRP | 0.179 |
| RRIRDRPPRLPRPRPRPDPLPRP | 0.64 |
| RRIRRRPPRLPRPRPRPILKPRP | 0.333 |
| RRIRTRPPRLPRPRPRPSCGPRP | -0.0561 |
| RRIRIRPPRLPRPRPRPRHTPRP | -0.34 |
| RRIRRRPPRLPRPRPRPQKLPRP | 0.102 |
| RRIRERPPRLPRPRPRPTYNPRP | -0.908 |
| RRIRIRPPRLPRPRPRPGRLPRP | 0.12 |
| RRIRSRPPRLPRPRPRPKFPPRP | 0.0385 |
| RRIRYRPPRLPRPRPRPVAPPRP | -0.0629 |
| RRIRNRPPRLPRPRPRPASIPRP | -0.0365 |
| RRIRARPPRLPRPRPRPPVWPRP | 0.685 |
| RRIRQRPPRLPRPRPRPHWNPRP | -0.703 |
| RRIRRRPPRLPRPRPRPAYSPRP | 0.0936 |
| RRIRWRPPRLPRPRPRPFWCPRP | 0.193 |
| RRIRERPPRLPRPRPRPDEHPRP | -0.274 |
